Square brackets hold non-standard residues; d marks the D form. Ends that are not written are not given here. pGlu = O=C1CC[C@@H](C(=O)O)N1

This assay addresses T1, mouse ADAMTS7 (Mus musculus, UniProt Q68SA9).
T1 construct: Full-length mouse Adamts7 1-1857 (Uniprot Q68SA9, WT or E373Q catalytic mutant); expressed in transfected cells; host or cells: Human Coronary Artery Smooth Muscle Cells (HCA-SMC, Lonza), adenovirus 50 MOI
T1 sequence (Q68SA9 221-1657): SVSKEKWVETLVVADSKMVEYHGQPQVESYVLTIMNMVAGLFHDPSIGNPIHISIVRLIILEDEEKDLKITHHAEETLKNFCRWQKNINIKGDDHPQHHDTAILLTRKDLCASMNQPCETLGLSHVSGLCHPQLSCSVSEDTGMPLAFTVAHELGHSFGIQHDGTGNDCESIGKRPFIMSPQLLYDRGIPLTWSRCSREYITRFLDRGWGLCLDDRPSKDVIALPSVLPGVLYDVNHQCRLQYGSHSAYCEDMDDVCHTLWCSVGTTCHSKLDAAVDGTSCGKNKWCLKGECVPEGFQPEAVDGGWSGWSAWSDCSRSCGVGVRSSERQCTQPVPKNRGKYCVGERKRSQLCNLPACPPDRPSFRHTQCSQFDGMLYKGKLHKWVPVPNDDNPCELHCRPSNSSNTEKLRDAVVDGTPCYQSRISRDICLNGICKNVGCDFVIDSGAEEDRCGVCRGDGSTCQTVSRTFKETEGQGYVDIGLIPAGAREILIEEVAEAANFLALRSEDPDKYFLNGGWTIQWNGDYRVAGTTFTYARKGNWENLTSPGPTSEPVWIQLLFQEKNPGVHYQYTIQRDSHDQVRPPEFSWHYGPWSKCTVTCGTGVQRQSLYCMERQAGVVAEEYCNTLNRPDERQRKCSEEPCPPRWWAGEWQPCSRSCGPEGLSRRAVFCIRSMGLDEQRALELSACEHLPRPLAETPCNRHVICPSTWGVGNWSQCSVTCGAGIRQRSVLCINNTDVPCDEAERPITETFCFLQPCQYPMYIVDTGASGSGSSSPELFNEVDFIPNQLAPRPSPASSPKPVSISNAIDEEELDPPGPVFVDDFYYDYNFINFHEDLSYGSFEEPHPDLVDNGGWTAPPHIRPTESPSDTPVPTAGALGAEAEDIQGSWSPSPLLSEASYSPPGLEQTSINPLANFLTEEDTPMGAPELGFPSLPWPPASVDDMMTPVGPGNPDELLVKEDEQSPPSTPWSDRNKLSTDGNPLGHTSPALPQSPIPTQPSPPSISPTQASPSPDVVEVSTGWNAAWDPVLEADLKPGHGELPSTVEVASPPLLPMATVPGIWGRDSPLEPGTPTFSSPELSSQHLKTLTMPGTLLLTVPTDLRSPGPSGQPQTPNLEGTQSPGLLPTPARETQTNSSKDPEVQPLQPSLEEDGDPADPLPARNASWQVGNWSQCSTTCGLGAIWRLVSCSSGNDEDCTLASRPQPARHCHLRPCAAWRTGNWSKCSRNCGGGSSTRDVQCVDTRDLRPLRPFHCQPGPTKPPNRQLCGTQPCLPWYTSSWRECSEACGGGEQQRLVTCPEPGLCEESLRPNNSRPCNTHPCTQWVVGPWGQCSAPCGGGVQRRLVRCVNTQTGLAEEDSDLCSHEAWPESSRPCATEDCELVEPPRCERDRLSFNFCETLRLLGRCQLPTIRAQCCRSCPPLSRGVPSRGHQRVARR
The experiment in a line: TMT10 TAILS N-terminomics, SMC1 experiment (Ad-mADAMTS7 WT vs EQ vs Luc, technical replicates, trypsin digest). The assay is classed as cell-based. As to conditions: TAILS neo-N-terminal peptide abundance; log fold change, Ad-mADAMTS7 WT over Luc. The text has this: ADAMTS7 Expression, Cell Culture and Preparation of the Secreted Proteins—Full-length mouse Adamts7 1-1857 (Uniprot Q68SA9, WT or E373Q catalytic mutant) with a carboxyl terminal 3xFLAG tag was used to generate custom adenoviruses as previously described. Adeno-CMV-Luciferase (Ad-Luc) from Vector Biolabs was used as a negative control. Human Coronary Artery Smooth Muscle Cells (HCA-SMC) were obtained from Lonza and expanded in Lonza SmGM-2 media in 15 cm tissue culture plates. Twenty-four hours before media collection, near confluent plates were transduced with 50 MOI adenovirus and switched to Lonza Basal SM media with volumes of 20 ml per 15 cm plate. Expression of the Flag tagged ADAMTS7 was confirmed from the media using western blot and detected using the anti-Flag M2-HRP antibody (Sigma, A8592). Collected media was processed by adding protease inhibitors (1 mM EDTA and 1 mM PMSF) and clarified by 500 g×5 min spin at 4 C to pellet cell debris. Cell media supernatants were then passed through a 0.22 um filter and kept chilled. Processed media was then concentrated 50-100× using 3 kDa Centricon Plus-70 filter unit, spun at 3,500 g×60 min at 4 C. Approximately 10% of the processed, concentrated media was set aside for total secretome proteolytic analysis. The remaining 90% of the processed, concentrated media was buffer exchanged into 50 mM HEPES pH 8.0, 150 mM NaCl (2×50 ml) using the 3 kDa Centricon Plus-70 filter unit and concentrated to >2 mg/ml to serve as input for the TAILS experiment. Secretome and TAILS input samples were stored at −80° C.
For the first experiment, referred to as SMC1, 120 ml of media from 6×15 cm dishes was pooled from each condition (Luc, WT, EQ) and processed to produce three separate inputs for the TAILS experiment. Luc, WT and EQ inputs from the SMC1 experiment were each divided into triplicate 400 ug samples to generate technical replicate TAILS data. For the second experiment, referred to as SMC2, media was processed separately in triplicate for each condition (Luc1, Luc2, Luc3, WT1, WT2, WT3, EQ1, EQ2, EQ3) using 60 ml of media from 3×15 cm dishes for each process replicate. Inputs from the SMC2 experiment used process replicates of 300 ug each to generate TAILS data. The third experiment used input from cultured Human umbilical vein endothelial cells (HUVEC) from Lifeline Cell Technology grown in VascuLife Media and transduced in Lifeline Basal EC (+bFGF2 10 ng/ml). The HUVEC experiment used the same strategy as the SMC2 experiment, with 40 ml of media from 2×15 cm dishes for each process replicate and used 200 ug each to generate TAILS data. Inputs for process replicate experiments were restricted to the lowest concentration from the 9 parallel samples for SMC2 or HUVEC.
TMT10 isotopic labeling and negative selection of non-labeled peptides-Sample preparation was performed based on the TAILS protocol from the Overall lab with some modifications. From a single experiment, nine parallel protein samples in 50 mM HEPES pH 8.0, 150 mM NaCl were separately denatured with guanidinium chloride (Sigma, G4505) to reach a final concentration of 2.5M guanidinium chloride and 250 mM HEPES and incubated at 65° C. for 15 min. Reduction was achieved through addition of tris(2-carboxylethyl) phosphine (TCEP) at a final concentration of […] and incubated at 65° C. for 45 min. Alkylation reaction was performed with addition of iodoacetamide (IAA, Sigma, A3221) to a final concentration of 10 mM IAA for 15 min at room temperature in the dark. Following denaturation, reduction and alkylation steps, ten percent of each of the nine parallel protein samples was removed and combined to serve as a pooled reference. Isobaric tags were added to free amine groups using the TMT10plex Isobaric Mass Tagging Kit (ThermoFisher, 90113) with TMT channels randomly assigned to the nine samples and TMT 131 assigned to the pooled reference. […]
As for “ACTB_21 (FAGDDAPR; listed as Homo sapiens)”, the logFC.mWT.over.Lux is recorded as 1.09. “ACTB_105 (LTEAPLNPKANR; listed as Homo sapiens)” gave a logFC.mWT.over.Lux of 1.88.

“ADAM9_69 (VIQAEGKEHIIHLER; listed as Homo sapiens)”: the logFC.mWT.over.Lux was 1.45. For “AEBP1_37 (FLEGFLSELEPEPR; listed as Homo sapiens)”, the logFC.mWT.over.Lux came to 3.23.

As to “APLP2_579 (ISETPVDVR; listed as Homo sapiens)”, the logFC.mWT.over.Lux was found to be 2.27. The figure for “CCDC80_66 (LEEPNLQPLQR; listed as Homo sapiens)” is 3.84; for “ECM1_134 (FGDQSHPEPESWNAAQHCQQDR; listed as Homo sapiens)” it is 3.02; for “EFEMP1_124 (AVAGPEMQTGR; listed as Homo sapiens)” it is 3.84. The result for “EFEMP1_125 (VAGPEMQTGR; listed as Homo sapiens)” reads 1.92; that for “EFHD2_67 (QGIGEPQSPSR; listed as Homo sapiens)”, 0.81; that for “EHBP1L1_298 (TAPTPAPR; listed as Homo sapiens)”, 1.01. The result for “FBLN2_259 (ALGPPAPVQAKAR; listed as Homo sapiens)” reads 1.29; that for “FBLN2_260 (LGPPAPVQAKAR; listed as Homo sapiens)”, 3.46. Substance “FBN1_29 (LEAGNVKETR; listed as Homo sapiens)” gave a logFC.mWT.over.Lux of 4.70. Turning to “FBN1_53 (LKGPNVCGSR; listed as Homo sapiens)”, the logFC.mWT.over.Lux is on record as 4.89.

Regarding “FLNA_612 (SVEGPSQAKIECDDKGDGSCDVR; listed as Homo sapiens)”, the logFC.mWT.over.Lux is 1.87. In turn, “FLNA_695 (FTVDAKHGGKAPLR; listed as Homo sapiens)” showed a logFC.mWT.over.Lux of 4.79.

Substance “FLNA_1285 (LTQTGGPHVKAR; listed as Homo sapiens)” yielded a logFC.mWT.over.Lux of 4.95. The figure for “FN1_36 (MVQPQSPVAVSQSKPGCYDNGKHYQINQQWER; listed as Homo sapiens)” is 3.73. Turning to “FN1_40 (QSPVAVSQSKPGCYDNGKHYQINQQWER; listed as Homo sapiens)”, the logFC.mWT.over.Lux was determined as 3.87.

“FN1_45 (VSQSKPGCYDNGKHYQINQQWER; listed as Homo sapiens)” displayed a logFC.mWT.over.Lux of 3.70. Turning to “FN1_47 ([code q]SKPGCYD[code n]GKHYQINQQWER; not fully specified; listed as Homo sapiens)”, the logFC.mWT.over.Lux came to 3.08. Substance “FN1_281 (SGSGPFTDVR; listed as Homo sapiens)” had a logFC.mWT.over.Lux of 2.44.

With “FN1_282 (GSGPFTDVR; listed as Homo sapiens)”, the logFC.mWT.over.Lux came to 3.74.

“FN1_886 (NQESTPVVIQQETTGTPR; listed as Homo sapiens)” returned a logFC.mWT.over.Lux of 1.70.

On to “FN1_1143 (LTPGVEYVYTIQVLR; listed as Homo sapiens)”, for which the logFC.mWT.over.Lux was 0.85. The figure for “FN1_1656 (SSSPVTGYR; listed as Homo sapiens)” is 1.44. The figure for “FN1_1731 (FTDVDVDSIKIAWESPQGQVSR; listed as Homo sapiens)” is 2.59; for “FN1_2143 (FEEHGFR; listed as Homo sapiens)” it is 1.11. The figure for “FN1_2217 (FQDTSEYIISCHPVGTDEEPLQFR; listed as Homo sapiens)” is 2.41. Take “GALNT2_31 (LAGGAGGGAGR; listed as Homo sapiens)”: the logFC.mWT.over.Lux was 0.76. The result for “GSN_35 (SQAGAPQGR; listed as Homo sapiens)” reads 4.42; that for “GSN_413 (HIANVER; listed as Homo sapiens)”, 1.99; that for “HEG1_49 (GAGLELQLER; listed as Homo sapiens)”, 1.72. As to “HLA−C_52 (VDDTQFVR; listed as Homo sapiens)”, the logFC.mWT.over.Lux came out at 1.14. Substance “HSPG2_275 (LLPGSVR; listed as Homo sapiens)” showed a logFC.mWT.over.Lux of 2.87. For “HSPG2_1937 (SSAGQQVAR; listed as Homo sapiens)”, the logFC.mWT.over.Lux amounted to 0.79. The figure for “HSPG2_2331 (ANLAYPAGSTQPIR; listed as Homo sapiens)” is 2.07; for “HSPG2_2333 (LAYPAGSTQPIR; listed as Homo sapiens)” it is 1.93; for “HSPG2_2688 (VADSGEYVCR; listed as Homo sapiens)” it is 3.16.

In turn, “HSPG2_3250 (SPLPWQHR; listed as Homo sapiens)” came in with a logFC.mWT.over.Lux of 1.00. In turn, “HSPG2_3542 (IAHVELADAGQYR; listed as Homo sapiens)” yielded a logFC.mWT.over.Lux of 0.60. The figure for “HSPG2_3647 ([pGlu]GKVKAFAHLQVPER; listed as Homo sapiens)” is 0.96.

These data come from patent publication US20240368668A1, “SUBSTRATES AND BIOMARKERS OF ADAMTS7” (The Broad Institute, Inc., priority 2021, published 2024).
